Measurements: paper PMC12743511, “HSD17β11 regulates PLIN5-ATGL mediated lipolysis, but not hepatic lipid metabolism in mice” (Journal of Lipid Research, 2025)

Target: T1, PLIN5-CFP (perilipin 5 fused to CFP) (UniProt Q00G26 1-463)
T1 construct: perilipin 5 (PLIN5); FRET donor; source: transiently transfected (Lipofectamine 3000), in live cells
T1 sequence (looked up): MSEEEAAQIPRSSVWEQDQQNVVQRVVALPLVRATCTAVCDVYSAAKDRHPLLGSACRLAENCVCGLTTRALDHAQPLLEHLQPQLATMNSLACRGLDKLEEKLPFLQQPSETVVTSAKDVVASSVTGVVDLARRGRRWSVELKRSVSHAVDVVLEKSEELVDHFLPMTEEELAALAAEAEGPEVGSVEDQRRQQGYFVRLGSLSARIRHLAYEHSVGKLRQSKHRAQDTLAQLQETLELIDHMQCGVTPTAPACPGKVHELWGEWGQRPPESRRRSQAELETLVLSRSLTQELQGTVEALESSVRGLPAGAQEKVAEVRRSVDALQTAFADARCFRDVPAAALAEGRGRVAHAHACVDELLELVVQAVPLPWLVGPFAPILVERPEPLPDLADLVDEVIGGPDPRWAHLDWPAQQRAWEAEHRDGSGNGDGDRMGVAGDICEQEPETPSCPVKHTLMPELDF
Assay: FRET or BRET; FLIM-FRET with phasor analysis in live transfected cells, CFP donor and YFP acceptor, 37°C, 5% CO2; basal and forskolin (PKA) stimulated; ATGL-CFP with PLIN5-YFP in WT and HSD^KO cells; read-out FRET ratio (pixels with FRET / pixels without)
Settings: partners not purified

fold increase in FRET ratio over donor alone: 2.5 fold
B1: HSD17β11-YFP (hydroxysteroid 17β dehydrogenase 11 fused to YFP) (natural protein, UniProt Q8NBQ5 1-300, looked up)
chain: MKFLLDILLLLPLLIVCSLESFVKLFIPKRRKSVTGEIVLITGAGHGIGRLTAYEFAKLKSKLVLWDINKHGLEETAAKCKGLGAKVHTFVVDCSNREDIYSSAKKVKAEIGDVSILVNNAGVVYTSDLFATQDPQIEKTFEVNVLAHFWTTKAFLPAMTKNNHGHIVTVASAAGHVSVPFLLAYCSSKFAAVGFHKTLTDELAALQITGVKTTCLCPNFVNTGFIKNPSTSLGPTLEPEEVVNRLMHGILTEQKMIFIPSSIAFLTTLERILPERFLAVLKRKISVKFDAVIGYKMKAQ
notes: hydroxysteroid 17β dehydrogenase 11 (HSD17β11), wild type; FRET acceptor; also called HSD^WT-YFP; source: transiently transfected (Lipofectamine 3000), in live cells
